T1: exon 6 peptide (ASSLRNDSSSSNRKAKNPPGDS), coated on ELISA plate (not fully specified)
T1 construct: No biotin is mentioned for the ELISA coat; also called a peptide of SCF248
T1 peptide: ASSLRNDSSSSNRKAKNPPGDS


Tests used:
[1] = biological target: human SCF248 (stem cell factor 248 isoform) expressed on mouse SI/SI4 cells (human), P21583; assay: cell-based or functional assay
[2] = biological target: T1, exon 6 peptide …; assay: direct ELISA on coated peptide, IgG4, read at 450 nm
Method: A direct enzyme-linked immunosorbent assay (ELISA) was performed to evaluate binding of the clones of Example 2 (referred to in all additional examples as “mutants”) to the Exon 6 peptide. The mutants were expressed as full length IgG4 antibodies.
The plate was incubated at 4° C. overnight. […] Both plates were washed with wash buffer twice. Then, the plates were blocked with blocking buffer for 1 hour at 37° C. The plates were then washed with wash buffer twice. […] The plate was covered and incubated for 1 hour at 37° C. The plates were then washed with wash buffer three times. The secondary antibody was added to the plates. The plates were covered and incubated for 1 hour at 37° C. The plates were then washed with wash buffer three times. 100 μL of detection substrate was added to each well of the plates. The plates were covered and incubated for 10-20 minutes at room temperature. Subsequently, 100 μL of stop solution was added to the plates. Each plate was read at an absorbance of 450 nm.
Reagents: Coating buffer contained 1.5M NaCl, 0.5M […], and 1.0N NaOH. Wash buffer contained 0.05% Tween-20 in PBS. Blocking buffer contained 2.0% normal goat serum in wash buffer. The dilution buffer was wash buffer and 2% FCS. The secondary antibody was a goat anti-human IgG HRP conjugate, purchased from Millipore (Catalogue Number: AP309P). The secondary antibody was diluted 1:1000. The detection substrate was prepared by dissolving 4 O-phenylenediamine dihydrochloride (OPD) tablets dissolved in 12 mL sterile distilled water. 5 μL of hydrogen peroxide (30% v/v) was added to the detection substrate immediately before adding substrate to the wells. The stop solution contained 0.5 M H₂SO₄.

human SCF248 (stem cell factor 248 isoform) expressed on mouse SI/SI4 cells (human), P21583, sequence (P21583 26-273): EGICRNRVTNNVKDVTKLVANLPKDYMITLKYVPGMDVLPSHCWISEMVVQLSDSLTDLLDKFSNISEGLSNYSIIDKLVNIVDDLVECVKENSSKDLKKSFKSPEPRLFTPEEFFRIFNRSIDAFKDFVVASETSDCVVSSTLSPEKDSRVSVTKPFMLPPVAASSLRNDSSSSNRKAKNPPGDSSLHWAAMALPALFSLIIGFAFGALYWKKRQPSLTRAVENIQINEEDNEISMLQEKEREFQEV

| Binder | CCL2 Expression as Percentage of Positive Control [1] [%] | TGFβ Expression as Percentage of Positive Control [1] [%] | absorbance at 0.1 ng/mL antibody [2] [absorbance] | absorbance at 0.5 ng/mL antibody [2] [absorbance] | absorbance at 1 ng/mL antibody [2] [absorbance] | absorbance at 5 ng/mL antibody [2] [absorbance] | absorbance at 100 ng/mL antibody [2] [absorbance] | absorbance at 1000 ng/mL antibody [2] [absorbance] |
| --- | --- | --- | --- | --- | --- | --- | --- | --- |
| 5H10 VK3/VH1 humanized antibody of Table 1 (antibody, V domains shown) VH: QVQLVQSGAELKKPGSSVKISCKSSGYAFSSYWMNWVKQRPGQGLEWIGQIYPGDGDTHYNGKFKGKATLTADKSTSTAYMELSSLTSEDSAVYFCSSSNWVGSYWGQGTLVTVSS VL: DVVMTQSPLSLPVTLGQPASISCKSSQSLLESDGKTYLNWLQQRPGQSPRRLIYLVSRLDSGVPDRFSGSGSGTDFTLKISRVEAEDVGVYYCWQGTHLPQTFGGGTKVEIK | 37 | 65.5 |  |  |  |  |  |  |
| H74P mutant expressed as full length IgG4 antibody (antibody, V domains shown, Full length IgG4) VH: QVQLVQSGAELKKPGSSVKISCKSSGYAFSSQWMNWVKQRPGQGLEWIGQIYPEDGDTHYNGKFKGKATLTADKSTSTAYMELSSLTSEDSAVYFCSSSNWVGSYWGQGTLVTVSS VL: DVVMTQSPLSLPVTLGQPASISCKSSQSLLEEDGNTYLNWLQQRPGQSPRRLIYLVDRLDLGVPDRFSGSGSGTDFTLKISRVEAEDVGVYYCWQGSHLPQTFGGGTKVEIK | 40.6 | 58.4 | 0.105 | 0.249 | 0.58 | 1.3 | 2.56 | 3 |
| D44P mutant expressed as full length IgG4 antibody (antibody, V domains shown, Full length IgG4) VH: QVQLVQSGAELKKPGSSVKISCKSSGYAFSSQWMNWVKQRPGQGLEWIGQIYPEDGDIHYNGKFKGKATLTADKSTSTAYMELSSLTSEDSAVYFCSSSNWVGSYWGQGTLVTVSS VL: DVVMTQSPLSLPVTLGQPASISCKSSQSLLEEDGNTYLNWLQQRPGQSPRRLIYLVDRLDSGVPDRFSGSGSGTDFTLKISRVEAEDVGVYYCWQGSHLPQTFGGGTKVEIK | 42.2 | 58.5 | 0.0895 | 0.207 | 0.744 | 1.98 | 2.16 | 2.9 |
| A84P mutant expressed as full length IgG4 antibody (antibody, V domains shown, Full length IgG4) VH: QVQLVQSGAELKKPGSSVKISCKSSGYAFSSQWMNWVKQRPGQGLEWIGQIYPEDGDTHMNGKFKGKATLTADKSTSTAYMELSSLTSEDSAVYFCSSSNWVGSYWGQGTLVTVSS VL: DVVMTQSPLSLPVTLGQPASISCKSSQSLLEEDGNTYLNWLQQRPGQSPRRLIYLVDRLDIGVPDRFSGSGSGTDFTLKISRVEAEDVGVYYCWQGTDLPQTFGGGTKVEIK | 35.6 | 65.8 | 0.131 | 0.193 | 0.56 | 1.48 | 2.67 | 3.14 |
| H83P mutant expressed as full length IgG4 antibody (antibody, V domains shown, Full length IgG4) VH: QVQLVQSGAELKKPGSSVKISCKSSGYAFSSQWMNWVKQRPGQGLEWIGQIYPGDGDIHYNDKFKGKATLTADKSTSTAYMELSSLTSEDSAVYFCSSSNWVGSYWGQGTLVTVSS VL: DVVMTQSPLSLPVTLGQPASISCKSSQSLLESDGNTYLNWLQQRPGQSPRRLIYLVDRLDSGVPDRFSGSGSGTDFTLKISRVEAEDVGVYYCWQGTDLPQTFGGGTKVEIK | 56.2 | 77.1 | 0.204 | 0.537 | 0.597 | 1.42 | 1.81 | 2.32 |
| D14P mutant expressed as full length IgG4 antibody (antibody, V domains shown, Full length IgG4) VH: QVQLVQSGAELKKPGSSVKISCKSSGYAFSSQWMNWVKQRPGQGLEWIGQIYPGDDDTHYNDKFKGKATLTADKSTSTAYMELSSLTSEDSAVYFCSSSNWVGSYWGQGTLVTVSS VL: DVVMTQSPLSLPVTLGQPASISCKSSQSLLESDGNTYLNWLQQRPGQSPRRLIYLVDRLDLGVPDRFSGSGSGTDFTLKISRVEAEDVGVYYCWQGTDLPQTFGGGTKVEIK | 46.8 | 48.8 | 0.137 | 0.266 | 0.861 | 1.81 | 2.53 | 3.15 |
| A64P mutant expressed as full length IgG4 antibody (antibody, V domains shown, Full length IgG4) VH: QVQLVQSGAELKKPGSSVKISCKSSGYAFSSNWMNWVKQRPGQGLEWIGQIYPEDGDTHYNGKFKGKATLTADKSTSTAYMELSSLTSEDSAVYFCSSSNWVGSYWGQGTLVTVSS VL: DVVMTQSPLSLPVTLGQPASISCKSSQSLLEEDGNTYLNWLQQRPGQSPRRLIYLVNRLDDGVPDRFSGSGSGTDFTLKISRVEAEDVGVYYCWQGTDLPQTFGGGTKVEIK | 22.9 | 47.9 | 0.122 | 0.172 | 0.564 | 1.41 | 2.71 | 3.12 |
| F54P mutant expressed as full length IgG4 antibody (antibody, V domains shown, Full length IgG4) VH: QVQLVQSGAELKKPGSSVKISCKSSGYAFSSQWMNWVKQRPGQGLEWIGQIYPEDGDTHMNGKFKTKATLTADKSTSTAYMELSSLTSEDSAVYFCSSSNWVGSYWGQGTLVTVSS VL: DVVMTQSPLSLPVTLGQPASISCKSSQSLLEEDGNTYLNWLQQRPGQSPRRLIYLVDRLDSGVPDRFSGSGSGTDFTLKISRVEAEDVGVYYCWQGTDLPQTFGGGTKVEIK | 55.7 | 74.6 | 0.11 | 0.367 | 0.446 | 1.35 | 1.57 | 2.42 |

More lines, now with the values ahead:

| CCL2 Expression as Percentage of Positive Control [1] [%] | TGFβ Expression as Percentage of Positive Control [1] [%] | absorbance at 0.1 ng/mL antibody [2] [absorbance] | absorbance at 0.5 ng/mL antibody [2] [absorbance] | absorbance at 1 ng/mL antibody [2] [absorbance] | absorbance at 5 ng/mL antibody [2] [absorbance] | absorbance at 100 ng/mL antibody [2] [absorbance] | absorbance at 1000 ng/mL antibody [2] [absorbance] | Binder |
| --- | --- | --- | --- | --- | --- | --- | --- | --- |
| 55.9 | 49.6 | 0.0985 | 0.183 | 0.629 | 1.32 | 2.4 | 2.76 | B124P mutant expressed as full length IgG4 antibody (antibody, V domains shown, Full length IgG4) VH: QVQLVQSGAELKKPGSSVKISCKSSGYAFSSNWMNWVKQRPGQGLEWIGQIYPEDGDTHYNDKFKGKATLTADKSTSTAYMELSSLTSEDSAVYFCSSSNWVGSYWGQGTLVTVSS VL: DVVMTQSPLSLPVTLGQPASISCKSSQSLLEQDGNTYLNWLQQRPGQSPRRLIYLVDRLDSGVPDRFSGSGSGTDFTLKISRVEAEDVGVYYCWQGTDLPQTFGGGTKVEIK |
| 27.4 | 46.9 | 0.092 | 0.305 | 1.02 | 1.57 | 2.6 | 2.94 | A104P mutant expressed as full length IgG4 antibody (antibody, V domains shown, Full length IgG4) VH: QVQLVQSGAELKKPGSSVKISCKSSGYAFSSQWMNWVKQRPGQGLEWIGQIYPEDGDTHYNGKFKGKATLTADKSTSTAYMELSSLTSEDSAVYFCSSSNWVGSYWGQGTLVTVSS VL: DVVMTQSPLSLPVTLGQPASISCKSSQSLLEEDGNTYLNWLQQRPGQSPRRLIYLVDRLDSGVPDRFSGSGSGTDFTLKISRVEAEDVGVYYCWQGTDLPQTFGGGTKVEIK |
| 31.7 | 43.9 | 0.0855 | 0.174 | 0.527 | 1.13 | 1.83 | 2.48 | B104P mutant expressed as full length IgG4 antibody (antibody, V domains shown, Full length IgG4) VH: QVQLVQSGAELKKPGSSVKISCKSSGYAFSSQWMNWVKQRPGQGLEWIGQIYPDDGDTHYNDKFKGKATLTADKSTSTAYMELSSLTSEDSAVYFCSSSNWVGSYWGQGTLVTVSS VL: DVVMTQSPLSLPVTLGQPASISCKSSQSLLEADGNTYLNWLQQRPGQSPRRLIYLVDRLDSGVPDRFSGSGSGTDFTLKISRVEAEDVGVYYCWQGTDLPQTFGGGTKVEIK |
| 59.1 | 59.5 | 0.098 | 0.127 | 0.446 | 1.11 | 2.43 | 2.81 | B114P mutant expressed as full length IgG4 antibody (antibody, V domains shown, Full length IgG4) VH: QVQLVQSGAELKKPGSSVKISCKSSGYAFSSQWMNWVKQRPGQGLEWIGQIYPEDGDTHMNGKFKGKATLTADKSTSTAYMELSSLTSEDSAVYFCSSSNWDGSYWGQGTLVTVSS VL: DVVMTQSPLSLPVTLGQPASISCKSSQSLLEEDGNTYLNWLQQRPGQSPRRLIYLVDRLDSGVPDRFSGSGSGTDFTLKISRVEAEDVGVYYCWQGTDLPQTFGGGTKVEIK |
